T1: human DNA polymerase δ p125 catalytic subunit (human, UniProt P28340 1-1107)
T1 sequence (looked up): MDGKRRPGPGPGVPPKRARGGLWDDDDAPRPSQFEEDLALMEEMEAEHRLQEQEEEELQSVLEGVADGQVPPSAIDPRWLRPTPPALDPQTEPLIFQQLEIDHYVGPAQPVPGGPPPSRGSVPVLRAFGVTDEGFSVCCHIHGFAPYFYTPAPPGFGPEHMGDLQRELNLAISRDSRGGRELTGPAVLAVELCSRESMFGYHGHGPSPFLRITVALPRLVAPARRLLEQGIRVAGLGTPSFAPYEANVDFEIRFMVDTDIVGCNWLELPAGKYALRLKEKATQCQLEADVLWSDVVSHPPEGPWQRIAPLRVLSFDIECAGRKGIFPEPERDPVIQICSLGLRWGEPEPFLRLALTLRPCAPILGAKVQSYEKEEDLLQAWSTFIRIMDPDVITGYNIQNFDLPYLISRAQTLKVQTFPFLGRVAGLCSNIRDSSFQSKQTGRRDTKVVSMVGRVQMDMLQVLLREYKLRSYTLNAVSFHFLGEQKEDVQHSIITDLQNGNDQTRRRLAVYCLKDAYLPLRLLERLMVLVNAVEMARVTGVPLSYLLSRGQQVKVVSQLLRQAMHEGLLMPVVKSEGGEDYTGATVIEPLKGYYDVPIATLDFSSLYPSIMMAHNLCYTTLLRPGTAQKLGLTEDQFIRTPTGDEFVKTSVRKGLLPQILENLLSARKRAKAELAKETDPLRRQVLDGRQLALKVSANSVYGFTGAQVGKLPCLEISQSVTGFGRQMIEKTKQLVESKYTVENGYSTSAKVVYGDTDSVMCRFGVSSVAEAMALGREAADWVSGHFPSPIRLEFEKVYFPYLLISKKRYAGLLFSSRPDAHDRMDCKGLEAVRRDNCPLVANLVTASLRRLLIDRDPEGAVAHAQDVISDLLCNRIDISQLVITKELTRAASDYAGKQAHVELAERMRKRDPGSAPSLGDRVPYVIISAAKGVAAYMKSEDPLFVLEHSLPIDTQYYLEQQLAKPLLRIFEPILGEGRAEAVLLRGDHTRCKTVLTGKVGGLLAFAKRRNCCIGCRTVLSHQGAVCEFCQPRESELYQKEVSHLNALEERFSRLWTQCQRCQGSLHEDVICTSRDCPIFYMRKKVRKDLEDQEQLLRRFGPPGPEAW

B1: human DNA polymerase δ p12 subunit (natural protein, UniProt Q9HCU8 1-107, looked up)
chain: MGRKRLITDSYPVVKRREGPAGHSKGELAPELGEEPQPRDEEEAELELLRQFDLAWQYGPCTGITRLQRWCRAKQMGLEPPPEVWQVLKTHPGDPRFQCSLWHLYPL
B2: human DNA polymerase δ p50 subunit (natural protein)
chain: not shown
B3: human DNA polymerase δ p68 subunit (natural protein, UniProt Q15054 1-466, looked up)
chain: MADQLYLENIDEFVTDQNKIVTYKWLSYTLGVHVNQAKQMLYDYVERKRKENSGAQLHVTYLVSGSLIQNGHSCHKVAVVREDKLEAVKSKLAVTASIHVYSIQKAMLKDSGPLFNTDYDILKSNLQNCSKFSAIQCAAAVPRAPAESSSSSKKFEQSHLHMSSETQANNELTTNGHGPPASKQVSQQPKGIMGMFASKAAAKTQETNKETKTEAKEVTNASAAGNKAPGKGNMMSNFFGKAAMNKFKVNLDSEQAVKEEKIVEQPTVSVTEPKLATPAGLKKSSKKAEPVKVLQKEKKRGKRVALSDDETKETENMRKKRRRIKLPESDSSEDEVFPDSPGAYEAESPSPPPPPSPPLEPVPKTEPEPPSVKSSSGENKRKRKRVLKSKTYLDGEGCIVTEKVYESESCTDSEEELNMKTSSVHRPPAMTVKKEPREERKGPKKGTAALGKANRQVSITGFFQRK

This test deals with T1, human DNA polymerase δ p125 catalytic …. In words: immunoaffinity co-purification, SDS-PAGE.
Turning to B1, the “stoichiometry N” value is roughly 1.

For the molecule B2, the “stoichiometry N” value was roughly 1.

Consider B3, for which the “stoichiometry N” value was roughly 1.

Values taken from PMC3825817 (DNA repair, 2013).
